Columns and labels:
[1] = biological target: T1, human IL-2Rβγ receptor on primary human T-cells and NK-cells (PBMCs) (human, UniProt P14784 27-551; P31785 23-369); experiment: flow cytometry cell binding on human CD4+ T-cells (PBMC), gMFI as fold over secondary antibody only
T1 construct: Endogenous receptor on primary cells; also called dimeric IL-2Rβγ receptor complex
T1 sequence 1: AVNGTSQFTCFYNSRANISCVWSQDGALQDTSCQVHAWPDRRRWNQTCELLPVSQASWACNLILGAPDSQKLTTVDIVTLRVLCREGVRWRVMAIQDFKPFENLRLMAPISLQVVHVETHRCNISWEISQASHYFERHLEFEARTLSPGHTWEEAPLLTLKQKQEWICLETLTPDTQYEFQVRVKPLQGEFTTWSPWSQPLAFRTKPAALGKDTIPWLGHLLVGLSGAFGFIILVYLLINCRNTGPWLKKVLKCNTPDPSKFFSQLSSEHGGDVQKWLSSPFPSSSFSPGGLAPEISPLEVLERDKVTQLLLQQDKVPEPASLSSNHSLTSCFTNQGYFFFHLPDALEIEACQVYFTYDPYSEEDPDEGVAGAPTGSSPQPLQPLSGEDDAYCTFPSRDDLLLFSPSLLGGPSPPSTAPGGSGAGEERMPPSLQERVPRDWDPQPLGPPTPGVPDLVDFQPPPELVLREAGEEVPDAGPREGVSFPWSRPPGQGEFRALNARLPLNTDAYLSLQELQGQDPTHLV
T1 sequence 2: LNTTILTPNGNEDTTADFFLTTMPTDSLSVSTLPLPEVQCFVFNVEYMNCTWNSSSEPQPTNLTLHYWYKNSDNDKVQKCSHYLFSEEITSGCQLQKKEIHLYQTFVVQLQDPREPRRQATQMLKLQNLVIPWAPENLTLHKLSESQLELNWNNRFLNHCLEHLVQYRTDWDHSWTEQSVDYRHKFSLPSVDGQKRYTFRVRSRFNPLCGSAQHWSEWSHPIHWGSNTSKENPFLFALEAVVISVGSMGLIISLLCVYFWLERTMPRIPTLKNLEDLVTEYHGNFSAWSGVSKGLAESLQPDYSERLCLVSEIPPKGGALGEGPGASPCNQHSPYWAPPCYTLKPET
Experimental: (§1) All washes and dilutions of cells, antibodies, and reagents were performed using flow buffer (1X PBS, 1% BSA, 0.1% NaN3, pH 7.4). Staining was performed in a round-bottom 96-well plate (Corning) seeded at 100,000 cells/well, and all incubations were performed at 4° C. or on ice. […] The cells were washed twice with 200 μL flow buffer. The cells were then incubated for 30 minutes with detection antibody (Goat F(ab′)2 Anti-Human IgG-PE, Southern Biotech) at 0.625 μg/mL in flow buffer. Following 2 more washes, the cells were resuspended in a final volume of 150 μL of flow buffer. The cells were analyzed on a BD FACSCelesta or a Guava easyCyte 8-HT flow cytometer. At least 3000 events were collected, and PE geometric mean fluorescence intensity was plotted as a fold over background (cells incubated with secondary detection antibody only). In some secondary screens involving human or cynomolgus PBMCs, an additional CD4 antibody (BioLegend) and/or CD8 antibody (BioLegend) was included to further characterize cell binding.

[2] = biological target: T1, human IL-2Rβγ receptor on primary human …; experiment: flow cytometry cell binding on human CD8+ T-cells (PBMC), gMFI as fold over secondary antibody only
Experimental: as §1

Binder	EC50 (read off the curve) [1] [nM]	EC50 (read off the curve) [2] [nM]	binding result [1]
BsAb-2 (IL2RB_F09G**IL2RG_F16B) (bispecific antibody, human IgG4, V domains shown, Heavy chain-only bispecific on silenced, stabilised human IgG4 Fc, knobs-into-holes, no light chains; not shown: C-terminal His-tag on the knob chain) V domain 1: QVQLQESGPGLVKSSETLSLTCTVSGGSISSSDWWSWVRQPPGKGLEWIGEIDHSGSTNYNPSLMSRVTISVDKSKNQFSLKLSSVTAADTAVYFCARGSWELTDAFDIRGQGTLVTVSS V domain 2: QVQLVESGGGLVKPGGSLRLSCAASGFTFSDYYMSWIRQAPGKGLEWVSYISSSGSTIYYADSVKGRFTISRDNAKNSLYLQMNSLRAEDTAVYYCARGDAVSITGDYRGQGTLVTVSS	~4	~10	–
BsAb-1 (IL2RB_F09C**IL2RG_F16A) (bispecific antibody, human IgG4, V domains shown, Heavy chain-only bispecific on silenced, stabilised human IgG4 Fc, knobs-into-holes, no light chains; not shown: C-terminal His-tag on the knob chain) V domain 1: QVQLQESGPGLVKPSGTLSLTCAVSGGSISSSDWWSWVRQPPGKGLEWIGEIDHSGSTNYNPSLMSRVTISVDKSKNQFSLKLSSVTAADTAVYFCGRGSWELSDAFDIRGQGTLVTVSS V domain 2: QVQLVESGGGLVKPGGSLRLSCAASGFTFSDYYMSWIRQAPGKGLEWVSSISSSGDTIYYADSVQGRFTLSRDNAENSLFLQMNSLRAEDTAVYYCARGDAVSITGDYRGQGTLVTVSS	~7	–	–
BsAb-3 (IL2RB_F09G**IL2RG_F16C) (bispecific antibody, human IgG4, V domains shown, Heavy chain-only bispecific on silenced, stabilised human IgG4 Fc, knobs-into-holes, no light chains; not shown: C-terminal His-tag on the knob chain) V domain 1: QVQLQESGPGLVKSSETLSLTCTVSGGSISSSDWWSWVRQPPGKGLEWIGEIDHSGSTNYNPSLMSRVTISVDKSKNQFSLKLSSVTAADTAVYFCARGSWELTDAFDIRGQGTLVTVSS V domain 2: QVQLVESGGGLVKPGGSLRLSCAASGFTFNDYYMSWIRQAPGKGLEWVSHISSSGSTIYYADSVKGRFTVSRDNANNSLYLQMHSLRAEDTAVYYCARGDAVSITGDYRGQGTLVTVSS	~7	~5	–

Next, values leading:

EC50 (read off the curve) [1] [nM]	EC50 (read off the curve) [2] [nM]	binding result [1]	Binder
–	–	binds	BsAb-5 (IL2RB_F09K**IL2RG_F16B) (bispecific antibody, human IgG4, V domains shown, Heavy chain-only bispecific on silenced, stabilised human IgG4 Fc, knobs-into-holes, no light chains; not shown: C-terminal His-tag on the knob chain) V domain 1: QVQLQESSPGLVKPSETLSLTCTVSGGSISSSNWWSWVRQPPGKGLEWIGEISHSGSTNYNPSLKSRVTISVDKSKNQFSLRLSSVTAADTAVYFCGRGSWELTDAFDIRGQGTLVTVSS V domain 2: QVQLVESGGGLVKPGGSLRLSCAASGFTFSDYYMSWIRQAPGKGLEWVSYISSSGSTIYYADSVKGRFTISRDNAKNSLYLQMNSLRAEDTAVYYCARGDAVSITGDYRGQGTLVTVSS
~4	–	–	BsAb-4 (IL2RB_F09G**IL2RG_F18A) (bispecific antibody, human IgG4, V domains shown, Heavy chain-only bispecific on silenced, stabilised human IgG4 Fc, knobs-into-holes, no light chains; not shown: C-terminal His-tag on the knob chain) V domain 1: QVQLQESGPGLVKSSETLSLTCTVSGGSISSSDWWSWVRQPPGKGLEWIGEIDHSGSTNYNPSLMSRVTISVDKSKNQFSLKLSSVTAADTAVYFCARGSWELTDAFDIRGQGTLVTVSS V domain 2: QVQLVESGGDLVKPGGSLRLSCAASGFTFSDYYMSWLRQAPGKELEWVSHISSSGTTTYYADSVEGRFTITRDNAKNSLYLQMNSLRAEDTAVYYCARGAAVAPGFDSRGQGTLVTVSS
~7	~5	–	BsAb-6 (IL2RB_F18E**IL2RG_F16A) (bispecific antibody, human IgG4, V domains shown, Heavy chain-only bispecific on silenced, stabilised human IgG4 Fc, knobs-into-holes, no light chains; not shown: C-terminal His-tag on the knob chain) V domain 1: QVQLVESGGGVVQPGRSLRLSCAASGFTFSSYGMHWVRQAPGKEREWVAVISYDGSNKYYTDSVKGRFTISRDNSKNTLYLEMNSLRAEDTAVYYCARDLDYDVLTGDPVGGFDIWGQGTLVTVSS V domain 2: QVQLVESGGGLVKPGGSLRLSCAASGFTFSDYYMSWIRQAPGKGLEWVSSISSSGDTIYYADSVQGRFTLSRDNAENSLFLQMNSLRAEDTAVYYCARGDAVSITGDYRGQGTLVTVSS
